# Paper PMC10843684 (Molecular cell, 2023)
# B1: Ubc8 C85K, insect cell-expressed and phosphorylated (the E2 chain of the Ubc8~ubiquitin mimic) (enzyme, S. cerevisiae)
# chain: MSSSKRRIETDVMKLLMSDHQVDLINDSMQEFHVKFLGPKDTPYENGVWRLHVELPDNYPYKSPSIGFVNKIFHPNIDIASGSIKLDVINSTWSPLYDLINIVEWMIPGLLKEPNGSDPLNNEAATLQLRDKKLYEEKIKEYIDKYATKEKYQQMFGGDNDSDDSDSGGDLQEEDSDSDEDMDGTGVSSGDDSVDELSEDLSDIDVSDDDDYDEVANQ
# modifications: heterogeneously phosphorylated C-terminal extension (phosphoserines 202 and 207 modelled); K85 isopeptide-bonded to ubiquitin
# Molecular target: T1, Gid2 (RING subunit of the GID E3 catalytic module) (S. cerevisiae, UniProt Q12508 1-421)
# T1 sequence: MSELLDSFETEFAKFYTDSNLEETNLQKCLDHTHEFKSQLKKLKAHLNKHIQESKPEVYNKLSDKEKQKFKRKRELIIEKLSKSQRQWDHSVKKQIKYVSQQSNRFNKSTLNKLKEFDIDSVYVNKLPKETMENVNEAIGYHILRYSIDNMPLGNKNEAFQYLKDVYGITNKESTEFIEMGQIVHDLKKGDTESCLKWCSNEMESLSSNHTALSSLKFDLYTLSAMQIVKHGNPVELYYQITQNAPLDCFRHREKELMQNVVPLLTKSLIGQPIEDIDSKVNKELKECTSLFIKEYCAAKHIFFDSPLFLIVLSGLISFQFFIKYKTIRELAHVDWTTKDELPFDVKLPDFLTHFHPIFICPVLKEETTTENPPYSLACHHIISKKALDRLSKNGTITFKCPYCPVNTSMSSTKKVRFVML
# Experiment: cryo-EM structure
binder,measurement,value
B1,binding result,binds
